Measurements taken from patent US7256256B1, “CDK4 binding peptide” (United States of America as represented by the Secretary, …, priority 1999, dated 2007).

Columns and labels:
CDK4 [1] = target: T1, CDK4 (Mus musculus, UniProt P30285); test: GST fusion pull-down binding assay with CDK4 from Sf9 cell extracts, anti-CDK4 immunoblot; set-up: made in house; host or cells: Sf9 insect cells, baculovirus; details: GST fusion protein on glutathione agarose; CDK4 from baculovirus infected Sf9 cell extracts
T1 sequence (P30285 1-303): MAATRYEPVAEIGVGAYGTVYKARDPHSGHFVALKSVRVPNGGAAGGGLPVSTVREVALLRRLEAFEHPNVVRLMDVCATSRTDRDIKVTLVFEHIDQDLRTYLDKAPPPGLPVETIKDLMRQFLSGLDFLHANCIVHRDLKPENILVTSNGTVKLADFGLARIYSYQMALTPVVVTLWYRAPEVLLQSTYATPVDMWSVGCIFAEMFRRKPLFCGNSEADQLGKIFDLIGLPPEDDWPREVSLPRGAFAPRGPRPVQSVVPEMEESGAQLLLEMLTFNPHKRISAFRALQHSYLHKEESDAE
Protocol: The Sf9 cell extract was incubated with agarasoe bound with either glutathione transferase (GST) alone, or GST fusion proteins encoding one of the four different vertebrate myogenic factors from chicken: CMD1 (MyoD), Ch-myogenin, Ch-myf5 an Ch-mrf4 using methods known to those of skill in the art. Any GST complexes formed were recovered on glutathione-Sepharose beads. The recovered GST complexes were then washed, heated in sample buffer and loaded on an SDS-PAGE gel.
The gel was then analyzed by immunoblot with anti-CDK4 affinity purified rabbit polyclonal antibody on HyBond ECL (Amersham). The anti-CKD4 antibody was diluted 1:2,000–5,000. The second antibody was HRP anti-rabbit and was diluted 1:10,000 (Pierce cat. no. 31460). The signal was detected using SuperSignal Ultra Reagent (Pierce cat. no. 34075).
Proteins were expressed in E. coli strain BL21 (DE3) and purified as described by Shirakata et al., Genes Dev. 1993 7(12A):2456–70. The MyoD-GST fusion proteins were bound to glutathione agaraose.
The binding experiments were performed with CDK4 produced in the baculovirus system (Kato et al., Genes Dev. 1993 7(3):331–42) essentially as described by Kaelin et al., Cell 1991 64(3):521–32.
Deletion mapping of the MyoD (CMD1) carboxy terminus narrowed the CDK4-binding region to a maximum of fifteen amino acids between residues 189–203, well outside the bHLH domain (FIG. 10b, lanes 4 and 5). To confirm that these fifteen amino acids bound CDK4, the fifteen amino acid peptide was joined to glutathione transferase and tested for its ability to bind the CDK4 from Sf9 cell extracts.

10T1/2 cells = test: BrdU incorporation growth arrest assay in transfected 10T1/2 cells; assay type: cell-based, mouse; details: for growth inhibitory activity (BrdU positive cells): 10T1/2 cells, 20% fetal calf serum, one hour BrdU pulse, domains with NLS in pCDNA3 or GST-pCEFL
Protocol: 10T1/2 cells in growth medium were cotransfected with plasmids expressing full-sized MyoD(CMD1) or the indicated domains, either as GST fusions in GST-pCEFL or as subclones in pCDNA3, along with a lacZ expression construct, pCH110, to mark transfected cells. The various domains were targeted to the nucleus with a nuclear tag in the absence of an existing NLS.
Cultures were maintained in 20% fetal calf serum. 72 hours after transfection cultures were refed with the same medium and 12 hours later they were given a one hour pulse with BrdU (10 μM) prior to fixation, as previously described by Crescenzi et al., PNAS USA 1990 87(21):8442–6; and Sorrentino et al., Nature, 1990 345(6278):813–5. Cells were then reacted with rabbit anti-BrdU antibody (Jackson labs) and Xgal.

CDK4 and cyclin D1 = target: T2, CDK4 and cyclin D1 (Mus musculus, UniProt P30285); test: In vitro CDK4 kinase assay on GST-RB, Western blot with phosphoserine 780/795 antibodies; assay type: biochemical; details: proteins added in two-fold increments from 75 ng to 300 ng; phosphoserine 780 antibody (identical with 795)
T2 construct: made in house; host or cells: Sf9 insect cells coinfected with baculovirus stocks (from C. J. Sherr)
Protocol: Active CDK4 was produced in Sf9 cells coinfected with baculovirus stocks encoding CDK4 and cyclin D1 (from C. J. Sherr).
The kinase assay was performed essentially as described by Kato, et al., Genes Dev, (1993), 7(3):331–42. The CDK4-specific kinase inhibitor p16 (from D. Beach, [as described in Serrano, et al., Nature, (1993), 366(6456): 704–7]) was used as a GST-p16 fusion added to the kinase reaction. The GST-RB fusion (767–928) was used as a kinase target as previously described Kato, et al., Genes Dev, (1993), 7(3):331–42.
To test for kinase inhibition, the various proteins and protein domains were added to the reaction in two-fold increments from 75 ng to 300 ng. […] For the GST constructs, total protein concentration was kept constant in the kinase reaction by adding GST protein. After the assay the total reaction was run on SDS PAGE gels and analyzed by Western blot analysis. Specific phosphorylation of RB was measured with rabbit polyclonal antibodies to RB phosphoserines 780 or 795 (New England Biolabs).

C2C12 myoblasts = test: RB phosphorylation and growth inhibition in cotransfected C2C12 myoblasts; assay type: cell-based, mouse
From the text: C2C12 myoblasts were cotransfected with a GST-pCEFL RB expression plasmid (RB aa 767–928) and pCDNA3 expression plasmids for full-sized or the C-terminus of MyoD(CMD1). GST-RB was recovered from the cells using methods known to those of skill in the art. The samples were adjusted for equal levels GST protein and loaded on SDS-PAGE gels for western analysis by phosphoserine 780 and 795-specific antibodies.

[2] = system: CDK4 target sites, serines 780 and 795 of RB; test: Phosphorylation of cotransfected GST-RB target in 10T1/2 cells, Western blot; assay type: cell-based, mouse; details: 48 hours after transfection, nuclear extracts
Protocol: The inhibitory activity of the fifteen amino acid CDK4 binding peptide on RB phosphorylation in cells was examined by fusing the fifteen amino acid CDK4-binding peptide of MyoD with a nuclear localization tag to the carboxy terminus of GFP and used in the same transfection protocol with GST-RB.
10T1/2 cells were cotransfected with a GST-RB target (amino acids 767–928) containing a nuclear localization tag, and either MyoD(CMD1) or the carboxy terminus of MyoD with an NLS.
48 hours after transfection, nuclear extracts of the 10T1/2 cells were prepared. The nuclear extracts were passed over glutathione agaraose to capture the GST-RB target.
Western blot analysis of the captured GST-RB target was performed with phosphoserine specific antibodies to the CDK4 target sites, serines 780 and 795. Gel loadings for the phosphoserine antibody analysis were adjusted to the same amount of GST-RB target protein by preliminary western analysis of the extracts (FIG. 13).

CDK4 [3] = target: T1, CDK4; test: Mammalian two-hybrid luciferase reporter assay with vp16-CDK4 in 10T1/2 fibroblasts; assay type: cell-based; details: average of three experiments
From the text: The interaction between MyoD and CDK4 in vivo was examined using a mammalian version of the yeast two hybrid system described by Finkel et al., (1993) J Biol Chem 268, 5–8.
MyoD and myogenin (MGN) were each cloned into the gal4 DNA-binding domain vector, pM. CDK4 was inserted into the vp16 activation domain plasmid, pVP16 using methods known to those of skill in the art.
10T1/2 fibroblasts (3×10^5 cells per 60 mm dish or multiwell plate) grown in DMEM with either 10% fetal calf serum were co-transfected with either gal4-MyoD or gal4-MGN along with vp16-CDK4 and a luciferase reporter using Fugene-6 (Boehringer-Mannheim) according to the manufacturer's directions. 1 μg gal4 luciferase reporter, 2 μg each of the gal4 (pM vector, Clonetech) and vp16 (pvp16 vector, Clonetech) constructs, and 300 ng of the beta galactosidase reporter pCH110 (Pharmacia), a total of 5.3 μg DNA, were used in each transfection. The pSV2-beta galactosidase reporter was used to normalize transfection efficiencies.
After 24–36 hours, if required, cells were placed in 2% horse serum plus insulin (10 μg/ml) to induce differentiation and destabilize cyclin D1. […]
24–48 hours after transfection, the luciferase reporter assay was performed according to the manufacturer's directions (Promega, cat. no. E4030) and measured in a Victor 1420 Multilabel Counter. […]

T2 sequence (P25322 whole entry partner, one chain of several): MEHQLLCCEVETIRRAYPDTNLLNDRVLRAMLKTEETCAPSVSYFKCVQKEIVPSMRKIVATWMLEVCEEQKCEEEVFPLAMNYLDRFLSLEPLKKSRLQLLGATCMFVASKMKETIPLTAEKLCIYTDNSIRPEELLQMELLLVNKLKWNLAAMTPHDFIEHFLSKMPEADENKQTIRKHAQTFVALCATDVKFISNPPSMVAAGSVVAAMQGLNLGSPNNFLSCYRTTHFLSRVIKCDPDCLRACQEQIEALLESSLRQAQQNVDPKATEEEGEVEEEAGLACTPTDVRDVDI

fifteen amino acid CDK4-binding peptide: amino acids 189–203 of chicken MyoD (CMD1), SEQ ID NO: 1; tested as GST fusion, with NLS in cells
binding to CDK4 (CDK4 [1]): bound CDK4 as efficiently as full-sized MyoD (CMD1) | growth inhibitory activity (BrdU positive cells) (10T1/2 cells): as potent as full-sized MyoD(CMD1) in growth inhibitory activity | growth inhibitory effect when the peptide further includes nuclear localization signal (NLS) (10T1/2 cells; data not shown): enhanced | inhibition of CDK4-dependent phosphorylation of RB (GST-RB) in vitro (CDK4 and cyclin D1): inhibit | CDK4 kinase activity and cell growth when expressed in cell nuclei (C2C12 myoblasts): inhibits CDK4 kinase activity and cell growth

B1: N-terminus (amino acids 1–92): amino acids 1–92 of CMD1 (protein, UniProt P16075 1-92, looked up, fragment)
chain: MDLLGPMEMTEGSLCSFTAADDFYDDPCFNTSDMHFFEDLDPRLVHVGGLLKPEEHPHTRAPPREPTEEEHVRAPSGHHQAGRCLLWACKAC
growth inhibitory activity (BrdU positive cells) (10T1/2 cells): ineffective in growth inhibition | inhibition of CDK4-dependent phosphorylation of RB (GST-RB) in vitro (CDK4 and cyclin D1): neither the N-terminus (amino acids 1–92) nor the bHLH domain of MyoD(CMD1) inhibited CDK4 activity

B2: Myogenin: chicken myogenic factor that does not bind CDK4, used as the control (protein, UniProt P17920 1-227, looked up)
Myogenin: MELFETNPYFFPEQRFYDGENFLGSRLQGYEAAAFPERPEVTLCPESRGALEEKDSTLPEHCPGQCLPWACKICKRKTVSIDRRRAATLREKRRLKKVNEAFEALKRSTLLNPNQRLPKVEILRSAIQYIERLQSLLSSLNQQEREQRELRYRPAAPQPAAPSECGSGSSSCSPEWSTQLEFGTNPADHLLSDDQAEDRNLHSLSSIVESIAVEDVAVTFPEERVQN
modifications: gal4 fusion
binding to CDK4 (CDK4 [1]): does not bind to CDK4 | inhibition of CDK4-dependent phosphorylation of RB (GST-RB) in vitro (CDK4 and cyclin D1): no inhibitory effect

B3: full-length MyoD(CMD1): full-sized chicken MyoD (CMD1), muscle specific bHLH transcription factor; used as GST, his-tag or gal4 constructs (protein, UniProt P16075 1-298, looked up)
chain: MDLLGPMEMTEGSLCSFTAADDFYDDPCFNTSDMHFFEDLDPRLVHVGGLLKPEEHPHTRAPPREPTEEEHVRAPSGHHQAGRCLLWACKACKRKTTNADRRKAATMRERRRLSKVNEAFETLKRCTSTNPNQRLPKVEILRNAIRYIESLQALLREQEDAYYPVLEHYSGESDASSPRSNCSDGMMEYSGPPCSSRRRNSYDSSYYTESPNDPKHGKSSVVSSLDCLSSIVERISTDNSTCPILPPAEAVAEGSPCSPQEGGNLSDSGAQIPSPTNCTPLPQESSSSSSSNPIYQVL
modifications: full-length GST, His or gal4 tagged
notes: full-sized chicken MyoD (CMD1), muscle specific bHLH transcription factor; used as GST, his-tag or gal4 constructs
binding to CDK4 (CDK4 [1]): binds specifically | phosphorylation of serines 780 and 795 on cotransfected RB target protein [2]: reduced the phosphorylation of serines 780 and 795 | growth inhibitory activity (BrdU positive cells) (10T1/2 cells): showed growth inhibitory activity | vp16 CDK4-dependent luciferase reporter activity (CDK4 [3]): four-fold increase | inhibition of CDK4-dependent phosphorylation of RB (GST-RB) in vitro (CDK4 and cyclin D1): inhibit

B4: C-terminus of MyoD(CMD1): amino acids 153–298 of CMD1 (protein, UniProt P16075 153-298, looked up, fragment)
chain: ALLREQEDAYYPVLEHYSGESDASSPRSNCSDGMMEYSGPPCSSRRRNSYDSSYYTESPNDPKHGKSSVVSSLDCLSSIVERISTDNSTCPILPPAEAVAEGSPCSPQEGGNLSDSGAQIPSPTNCTPLPQESSSSSSSNPIYQVL
binding to CDK4 (CDK4 [1]): CDK4 bound | phosphorylation of serines 780 and 795 on cotransfected RB target protein [2]: reduced the phosphorylation of serines 780 and 795 | inhibition of CDK4-dependent phosphorylation of RB (GST-RB) in vitro (CDK4 and cyclin D1): inhibit

B5: bHLH domain of MyoD(CMD1): amino acids 93–153 of CMD1 (protein, UniProt P16075 93-153, looked up, fragment)
chain: KRKTTNADRRKAATMRERRRLSKVNEAFETLKRCTSTNPNQRLPKVEILRNAIRYIESLQA
growth inhibitory activity (BrdU positive cells) (10T1/2 cells): effective at inhibiting cell growth | inhibition of CDK4-dependent phosphorylation of RB (GST-RB) in vitro (CDK4 and cyclin D1): neither the N-terminus (amino acids 1–92) nor the bHLH domain of MyoD(CMD1) inhibited CDK4 activity
